This series relates to Nc1ncnc2c1ncn2[C@@H]1O[C@H](COP(=O)(O)OP(=O)(O)O[C@H]2O[C@H](CO)[C@@H](O)[C@H](O)[C@H]2O)[C@@H](O)[C@H]1O. Put plainly: purified protein. The conditions noted are these: Mg2+ (stimulates kcat) compulsory-order ternary-complex mechanism; ADP-glucose binds before glucose 1-phosphate.

GlgA (Mycobacterium tuberculosis H37Rv): the Km (usually the substrate concentration at which the rate is half of its maximum) stood at 46 ± 4 µM; the maximal velocity (Vmax) (commonly the rate approached at saturating substrate) stood at 21.4 µmol/min/mg; the kcat – broadly, the maximal rate divided by the concentration of active sites – came out at 15.4 ± 0.3 s⁻¹.

Source of the values: article PMC4981310 (PLoS Pathogens, 2016).
